The results in this text go back to article PMC3315798 (Molecular Biology of the Cell, 2012).

This assay deals with T1, Fus2p-FLAG (full-length Fus2p, internally FLAG-epitope tagged at residue 104) (S. cerevisiae, UniProt Q05670 1-677).
T1 sequence (looked up): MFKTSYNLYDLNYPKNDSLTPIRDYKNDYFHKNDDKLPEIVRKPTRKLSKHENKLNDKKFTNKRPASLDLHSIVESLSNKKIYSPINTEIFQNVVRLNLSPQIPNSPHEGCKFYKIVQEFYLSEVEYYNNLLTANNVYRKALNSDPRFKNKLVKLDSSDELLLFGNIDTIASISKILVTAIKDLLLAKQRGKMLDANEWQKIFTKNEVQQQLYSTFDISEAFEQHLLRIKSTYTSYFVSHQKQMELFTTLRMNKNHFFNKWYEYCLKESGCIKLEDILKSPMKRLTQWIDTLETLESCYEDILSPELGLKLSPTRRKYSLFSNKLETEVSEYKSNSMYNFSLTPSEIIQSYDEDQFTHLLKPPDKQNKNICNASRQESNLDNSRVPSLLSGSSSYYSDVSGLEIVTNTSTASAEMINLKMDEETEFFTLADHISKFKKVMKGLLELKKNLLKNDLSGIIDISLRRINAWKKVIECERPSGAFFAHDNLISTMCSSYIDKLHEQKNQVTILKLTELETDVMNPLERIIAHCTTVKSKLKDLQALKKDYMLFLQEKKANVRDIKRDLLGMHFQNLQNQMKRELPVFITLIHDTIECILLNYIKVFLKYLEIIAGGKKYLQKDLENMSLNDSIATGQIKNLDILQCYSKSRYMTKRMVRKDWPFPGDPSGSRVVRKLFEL
Put plainly: co-IP.

B1: GST-Cdc42p (Q61L, D122A) (natural protein)
chain: not shown
In the case of B1, the “% binding relative to wild-type Cdc42p (so in the source)” value was 4%.

B2: GST-Cdc42p (V36M, Q61L) (natural protein)
chain: not shown
Take B2: the “% binding relative to wild-type Cdc42p (so in the source)” value came to 7%.

B3: GST-Cdc42p-Q61L (GTP-locked mutant) (natural protein)
chain: not shown
With B3, the “fold level bound compared with Cdc42p-T17N or wild type” value is approximately 20 fold.
